1 sequence from patent publication US20220243196 can be followed below.

Series [1] deals with Hantavirus (serum containing virus; nuclear protein) (Hantavirus). Nature of the series: ELONA.
For series [2], the system named is Influenza A virus (serum containing virus) (Influenza A virus). Nature of the series: ELONA.

For “ATCCAGAGTGACGCAGCACACATCGGAGAACAGGCGCACTGTCGGAGGAACCGCAACGTGGACACGGTGGCTTAGT [biotin-aptamer 3]”, the binding signal (a.u. absorbance) in series [1] and in series [2] was 0.1 in each case.
